Experimental data published in PMC10164398.

Target: fluorescein-labeled NS1 (89–237) (H3N2) (influenza A virus H3N2)
Test: […]

Sequence of fluorescein-labeled NS1 (89–237) (H3N2) (influenza A virus H3N2) (P03495 89-237 limits assumed): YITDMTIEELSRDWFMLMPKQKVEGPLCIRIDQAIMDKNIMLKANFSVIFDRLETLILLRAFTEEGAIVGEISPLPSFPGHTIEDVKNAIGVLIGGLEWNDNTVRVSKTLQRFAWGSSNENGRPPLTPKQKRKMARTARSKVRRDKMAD
Sequence of human eIF4E (P06730 whole entry): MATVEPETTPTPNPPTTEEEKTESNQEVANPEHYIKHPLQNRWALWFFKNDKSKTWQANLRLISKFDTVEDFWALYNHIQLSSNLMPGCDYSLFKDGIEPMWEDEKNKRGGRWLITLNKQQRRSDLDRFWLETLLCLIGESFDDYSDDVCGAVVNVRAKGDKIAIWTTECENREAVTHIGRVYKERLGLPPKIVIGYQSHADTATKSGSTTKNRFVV

Substance | Kd [nM]
human eIF4E (from UniProt P06730 1-217) (natural protein) | 177
eIF4G1 (88–653) (from UniProt Q04637 88-653) (domain or fragment) | 264
